Reference: patent publication US20240376151A1, “STAPLED PEPTIDES AND METHODS THEREOF” (FOG PHARMACEUTICALS, INC., priority 2022, published 2024)

Target: T1, beta-catenin (Homo sapiens, UniProt P35222)
T1 construct: made in house; host or cells: E. coli BL21 (DE3) pLysS
T1 sequence (P35222 134-665): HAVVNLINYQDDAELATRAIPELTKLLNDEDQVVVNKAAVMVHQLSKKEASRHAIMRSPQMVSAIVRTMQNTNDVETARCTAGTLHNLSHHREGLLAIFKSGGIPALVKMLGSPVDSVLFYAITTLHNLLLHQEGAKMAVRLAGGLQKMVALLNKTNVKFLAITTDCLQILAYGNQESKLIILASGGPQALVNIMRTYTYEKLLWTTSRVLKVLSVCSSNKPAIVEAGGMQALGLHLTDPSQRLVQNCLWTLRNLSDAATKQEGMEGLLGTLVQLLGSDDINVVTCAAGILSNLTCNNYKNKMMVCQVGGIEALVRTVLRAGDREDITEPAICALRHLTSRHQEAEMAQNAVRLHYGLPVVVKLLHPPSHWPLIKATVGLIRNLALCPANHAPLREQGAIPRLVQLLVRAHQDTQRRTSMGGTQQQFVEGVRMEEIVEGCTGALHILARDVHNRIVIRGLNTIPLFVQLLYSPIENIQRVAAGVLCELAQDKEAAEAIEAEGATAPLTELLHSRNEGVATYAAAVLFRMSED
Test: Phage Library Screening with NGS, beta-catenin
Format: binding
Settings: for Target Concentration 10 (phage screen NGS readout): beta-catenin target concentration 10; for Target Concentration 10 (phage screen NGS readout) / Target Concentration 30 (phage screen NGS readout) / Target Concentration 100 (phage screen NGS readout) / Target Concentration 300 (phage screen NGS readout): no competitor; for Target Concentration 30 (phage screen NGS readout): beta-catenin target concentration 30; for Target Concentration 100 (phage screen NGS readout): beta-catenin target concentration 100; for Target Concentration 300 (phage screen NGS readout): beta-catenin target concentration 300; for Target Concentration 1000 (phage screen NGS readout): beta-catenin target concentration 1000

Target Concentration BLANK (phage screen NGS readout) (first column) | Target Concentration BLANK (phage screen NGS readout) (fourth column) | Target Concentration BLANK (phage screen NGS readout) (second column) | Target Concentration BLANK (phage screen NGS readout) (third column) | Target Concentration 10 (phage screen NGS readout) | Target Concentration 30 (phage screen NGS readout) | Target Concentration 100 (phage screen NGS readout) | Target Concentration 300 (phage screen NGS readout) | Target Concentration 1000 (phage screen NGS readout) (first 1000 column) | Target Concentration 1000 (phage screen NGS readout) (second 1000 column) | Sequence
0 | 0 | 0 | 0 | 0 | 6 | 11 | 29 | 25 | 21 | DPADEDCILAAHVCRHF
0 | 0 | 0 | 0 | 0 | 1 | 0 | 31 | 19 | 64 | DPAHWSCEWAAEHCRLI

Further lines, the sequence ahead of its results:

Sequence | Target Concentration BLANK (phage screen NGS readout) (first column) | Target Concentration BLANK (phage screen NGS readout) (fourth column) | Target Concentration BLANK (phage screen NGS readout) (second column) | Target Concentration BLANK (phage screen NGS readout) (third column) | Target Concentration 10 (phage screen NGS readout) | Target Concentration 30 (phage screen NGS readout) | Target Concentration 100 (phage screen NGS readout) | Target Concentration 300 (phage screen NGS readout) | Target Concentration 1000 (phage screen NGS readout) (first 1000 column) | Target Concentration 1000 (phage screen NGS readout) (second 1000 column)
DPAVEDCVLAAHVCAWF | 0 | 0 | 0 | 0 | 0 | 2 | 47 | 39 | 49 | 73
DPAQQDCTLAAHVCRVF | 0 | 0 | 0 | 0 | 0 | 0 | 19 | 21 | 70 | 11
DPAILDCHIAAIQCFHD | 0 | 3 | 0 | 0 | 2 | 1 | 6 | 8 | 1 | 44
DPAILNCHVAAWNCHSF | 0 | 0 | 0 | 0 | 0 | 0 | 1 | 8 | 4 | 23
DPAEHDCMLAAHFCRHF | 0 | 0 | 2 | 0 | 8 | 55 | 242 | 194 | 337 | 260
DPAILECHVAALDCQMW | 0 | 0 | 2 | 0 | 0 | 2 | 40 | 55 | 98 | 81
